Experimental findings from paper PMC5801815 (Virology Journal, 2018) are described below.

The target in assay [1] is SUMO*-DENV-4 NS1 fusion protein (not stated | dengue virus 4 (DENV-4), strain H421) (UniProt Q58HT7). Nature of the assay: SDS-PAGE.
Assay [2] concerns the target T1, SUMO*-DENV-4 NS1 fusion protein (Dengue virus 4 strain H241 (printed …, UniProt Q58HT7)).
T1 construct: also called SUMO*-DENV-4 rNS1 fusion protein; SUMO*-NS1 fusion protein
Nature of the assay: ELISA. The conditions noted are these: one partner purified. A general note: An ELISA detects its analyte on a solid surface through an enzyme-linked reagent.

In assay [3] the target is T2, recombinant DENV-4 non-structural protein 1 (unfused commercial DENV-4 rNS1) (Dengue virus 4, strain  …, UniProt P09866). The assay is described as follows: western blot. The conditions noted are these: one partner purified. Background: A western blot detects proteins with antibodies after separation by electrophoresis.
Assay [4] has as its target T2, recombinant DENV-4 non-structural …. Nature of the assay: ELISA. The following applies: one partner purified.

What is called stoichiometry N is a count of units in the complex or per binding partner.

T1 sequence (Q58HT7 whole entry, the tested form may be a part): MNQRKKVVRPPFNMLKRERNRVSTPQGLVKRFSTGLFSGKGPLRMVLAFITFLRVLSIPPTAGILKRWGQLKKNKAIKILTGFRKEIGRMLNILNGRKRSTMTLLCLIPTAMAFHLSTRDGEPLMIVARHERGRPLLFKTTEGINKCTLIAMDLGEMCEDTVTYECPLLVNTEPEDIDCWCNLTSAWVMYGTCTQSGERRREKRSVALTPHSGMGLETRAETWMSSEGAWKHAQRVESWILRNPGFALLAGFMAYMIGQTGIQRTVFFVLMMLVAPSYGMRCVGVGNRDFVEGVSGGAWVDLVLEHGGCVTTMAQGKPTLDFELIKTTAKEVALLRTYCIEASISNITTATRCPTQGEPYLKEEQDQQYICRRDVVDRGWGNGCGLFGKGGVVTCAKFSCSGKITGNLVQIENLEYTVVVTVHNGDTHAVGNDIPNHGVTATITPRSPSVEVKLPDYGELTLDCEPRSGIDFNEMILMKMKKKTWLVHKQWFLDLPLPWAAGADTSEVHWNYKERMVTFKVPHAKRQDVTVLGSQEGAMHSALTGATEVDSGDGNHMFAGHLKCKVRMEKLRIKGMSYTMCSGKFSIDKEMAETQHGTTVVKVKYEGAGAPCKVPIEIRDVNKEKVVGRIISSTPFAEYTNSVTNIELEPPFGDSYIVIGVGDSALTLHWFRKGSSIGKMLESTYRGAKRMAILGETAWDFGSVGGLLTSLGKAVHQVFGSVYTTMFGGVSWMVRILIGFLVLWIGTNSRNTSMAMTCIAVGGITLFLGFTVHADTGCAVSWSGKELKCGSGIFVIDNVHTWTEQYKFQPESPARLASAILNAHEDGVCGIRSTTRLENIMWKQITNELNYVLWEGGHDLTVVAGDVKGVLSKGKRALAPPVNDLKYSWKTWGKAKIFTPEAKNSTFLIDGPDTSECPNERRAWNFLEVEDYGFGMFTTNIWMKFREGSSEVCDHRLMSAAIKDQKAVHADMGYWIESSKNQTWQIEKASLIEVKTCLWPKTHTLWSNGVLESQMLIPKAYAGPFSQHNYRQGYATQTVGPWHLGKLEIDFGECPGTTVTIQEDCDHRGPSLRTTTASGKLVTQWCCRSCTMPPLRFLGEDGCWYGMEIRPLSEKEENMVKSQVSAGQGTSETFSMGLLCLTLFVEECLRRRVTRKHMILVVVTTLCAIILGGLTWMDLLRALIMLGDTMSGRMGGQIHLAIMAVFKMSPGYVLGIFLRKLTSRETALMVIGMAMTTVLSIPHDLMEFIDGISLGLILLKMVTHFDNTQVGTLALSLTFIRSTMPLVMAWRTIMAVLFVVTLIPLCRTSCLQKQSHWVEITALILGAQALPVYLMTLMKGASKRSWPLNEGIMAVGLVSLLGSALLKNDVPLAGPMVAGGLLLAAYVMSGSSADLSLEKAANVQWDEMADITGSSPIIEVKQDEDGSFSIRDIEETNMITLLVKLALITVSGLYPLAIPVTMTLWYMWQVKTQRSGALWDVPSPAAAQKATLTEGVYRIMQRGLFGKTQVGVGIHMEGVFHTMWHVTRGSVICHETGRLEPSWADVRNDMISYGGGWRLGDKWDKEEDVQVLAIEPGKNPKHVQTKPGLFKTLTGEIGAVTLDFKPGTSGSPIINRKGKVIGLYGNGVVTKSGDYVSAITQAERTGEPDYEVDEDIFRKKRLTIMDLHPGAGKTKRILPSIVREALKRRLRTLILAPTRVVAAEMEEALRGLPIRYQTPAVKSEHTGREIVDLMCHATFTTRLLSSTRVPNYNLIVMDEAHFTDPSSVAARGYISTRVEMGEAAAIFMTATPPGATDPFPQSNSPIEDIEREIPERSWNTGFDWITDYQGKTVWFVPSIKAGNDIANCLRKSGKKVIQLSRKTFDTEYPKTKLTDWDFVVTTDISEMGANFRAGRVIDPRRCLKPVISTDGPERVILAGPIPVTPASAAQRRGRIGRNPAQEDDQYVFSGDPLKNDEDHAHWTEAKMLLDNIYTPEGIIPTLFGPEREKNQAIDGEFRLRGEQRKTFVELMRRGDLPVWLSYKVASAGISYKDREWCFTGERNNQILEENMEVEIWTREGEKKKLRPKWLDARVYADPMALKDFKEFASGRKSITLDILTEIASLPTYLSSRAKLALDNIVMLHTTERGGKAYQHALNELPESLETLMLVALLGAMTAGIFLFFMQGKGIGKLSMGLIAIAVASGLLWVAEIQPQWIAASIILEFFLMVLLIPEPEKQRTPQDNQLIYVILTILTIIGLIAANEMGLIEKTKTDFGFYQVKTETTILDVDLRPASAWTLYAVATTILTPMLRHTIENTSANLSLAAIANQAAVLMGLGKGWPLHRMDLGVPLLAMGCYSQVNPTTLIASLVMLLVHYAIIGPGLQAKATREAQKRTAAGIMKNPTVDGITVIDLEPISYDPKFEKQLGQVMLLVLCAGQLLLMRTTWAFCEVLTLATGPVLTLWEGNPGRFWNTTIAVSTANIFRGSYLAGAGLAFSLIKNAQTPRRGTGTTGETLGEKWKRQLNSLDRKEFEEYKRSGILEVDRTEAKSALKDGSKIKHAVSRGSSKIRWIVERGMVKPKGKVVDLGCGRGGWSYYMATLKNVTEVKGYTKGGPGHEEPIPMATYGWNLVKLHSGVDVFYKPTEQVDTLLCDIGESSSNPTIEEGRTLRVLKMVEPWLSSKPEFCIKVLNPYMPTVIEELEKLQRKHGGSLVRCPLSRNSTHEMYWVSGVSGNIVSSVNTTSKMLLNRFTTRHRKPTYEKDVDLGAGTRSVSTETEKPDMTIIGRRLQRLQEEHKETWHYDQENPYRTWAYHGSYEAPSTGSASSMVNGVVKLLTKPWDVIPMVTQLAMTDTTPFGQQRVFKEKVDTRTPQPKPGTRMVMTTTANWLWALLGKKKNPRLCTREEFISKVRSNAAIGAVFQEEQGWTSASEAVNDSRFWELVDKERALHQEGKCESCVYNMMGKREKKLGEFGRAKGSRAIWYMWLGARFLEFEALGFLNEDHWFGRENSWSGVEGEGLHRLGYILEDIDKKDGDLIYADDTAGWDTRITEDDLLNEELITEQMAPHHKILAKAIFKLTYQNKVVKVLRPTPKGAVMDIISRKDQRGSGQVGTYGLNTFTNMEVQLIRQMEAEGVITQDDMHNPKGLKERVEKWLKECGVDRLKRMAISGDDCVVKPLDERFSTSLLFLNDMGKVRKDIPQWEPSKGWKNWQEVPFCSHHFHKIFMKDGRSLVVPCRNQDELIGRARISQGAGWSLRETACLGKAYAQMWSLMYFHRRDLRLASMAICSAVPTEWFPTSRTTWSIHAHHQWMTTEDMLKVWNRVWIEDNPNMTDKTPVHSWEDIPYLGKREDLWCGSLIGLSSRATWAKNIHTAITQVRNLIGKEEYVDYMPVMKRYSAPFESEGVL

In the case of “SUMO*-DENV-4 NS1 fusion protein (from UniProt Q58HT7 775-1126)”, the stoichiometry N in assay [1] came out at 2.

B1: MAb 8A6F2 (antibody, V domains shown)
VH: DVQLQESGPDLVKPSQSLSLTCTVTGYSITSGYNWHWIRQFPGNKLEWMGYIHYSGGTNYNPSLKSRISITRDTSKNQFFLQLNSVTTEDTATYYCARRTGTVPFAYWGQGTLVTVSA
VL: EIVLTQSPALMAASPGEKVTITCSVSSSISSSNLHWYQQKSETSPKPWIYGTSNLASGVPVRFSGSGSGTSYSLTISSMEAEDAATYYCQQWSSYPLTFGGGTKLEIK
notes: also called biotinylated 8A6F2; 86FA2
On to B1, for which, in assay [2], the binding result is listed as “binds”.

B2: MAb 3H7A9 (antibody, V domains shown)
VH: EVQLQQSGAELVKPGASVKLSCTASGFNIKDTYMHWVKQRPEQGLEWIGRIDPANGNTQYGPKFQGKATITADTSSNTAYLQLSSLTSEDTAVYYCARGGIFYYYGSSYSYAMDYWGQGTSVTVSS
VL: DIQMTQTTSSLSASLGDRVTISCRASQDISNYLNWYQQKPDGTVTLLIYYTSRLHSGVPSRFSGSGSGTDYSLTISNLEQEDIATYFCQQGNTLPRTFGGGTKLEIK
In the case of B2, the binding result in assay [2] and in assay [3] was “binds” each time.

B3: MAb 6D4B10 (antibody, V domains shown)
VH: EVQLQQSGPELVKPGASVKMSCKASGYTFTSYVMHWVKQKPGQGLEWIGYLNPYNDDTKYNEKFKGKATLTSDKSSSTAYMELSSLTSEDSAVYYCAYGPPYALDYWGQGTSVTVSS
VL: QIVLTQSPAIMTASLGERVTMTCTASSSVSSSYLHWYQQKPGSSPKLWIYSTSNLASGVPARFSGSGSGTSYSLTISSMEAEDAATYYCHQYHRSPYTFGGGTKLEIK
notes: also called biotinylated 6D4B10
Regarding B3, the binding result in assay [4] and in assay [2] was “binds” throughout.
